Assay results taken from patent US20240317834A1, “COMPOSITIONS AND METHODS FOR NEUROLOGICAL DISEASES” (CODA BIOTHERAPEUTICS, INC., priority 2020, published 2024).

Tested on: Lenti-X 293T cells
Experiment: YFP fluorescence quenching anion reporter plate reader assay of engineered receptors stimulated with acetylcholine or a non-native ligand
Type: cell-based
Conditions: for percent quench of YFP fluorescence, 30 nM TC-6683: TC-6683 30 nM; for percent quench of YFP fluorescence, 300 nM TC-6683: TC-6683 300 nM; for percent quench of YFP fluorescence, 3 uM TC-6683: TC-6683 3 uM; for percent quench of YFP fluorescence, 30 uM TC-6683: TC-6683 30 uM; for percent quench of YFP fluorescence, 100 uM TC-6683: TC-6683 100 uM; for percent quench of YFP fluorescence, 10 uM ach: acetylcholine 10 uM; for percent quench of YFP fluorescence, 100 uM ach: acetylcholine 100 uM; for percent quench of YFP fluorescence, 1 mM ach: acetylcholine 1 mM; for percent quench of YFP fluorescence, 3 mM ach: acetylcholine 3 mM
Source text: To screen these mutant LGICs for those having novel response profiles to ligands, an anion reporter assay was developed to assess the function of the LGICs in a high throughput format. In this assay, cells expressing a YFP reporter whose fluorescence is quenched in the presence of anion are transfected with DNA encoding the channel of interest. Upon exposure to ligand, channels that are activated will flux anion, resulting in a dose-dependent quench of the YFP that can be detected on a plate reader. The greater the quench signal (i.e., the more positive the value), the higher the ligand activity on the receptor is.
Lenti-X 293T cells (LX293T, Clontech) were maintained in DMEM containing 10% FBS and 1% penicillin/streptomycin (Invitrogen). […] Two days before assay, cells were split at a density of 20,000 cells/well in a 96-well tissue culture plate coated with poly-d lysine (Thermo Scientific). The next day, the cells were transiently transfected with 0.1 μg of DNA per well using standard Fugene protocol (Promega). On the day of assay, cells were washed 2 times in 1× extracellular solution (1×ECS: 140 mM NaCl, 5 mM KCl, 1 mM MgCl2, 2 mM CaCl2), 10 mM HEPES, 10 mM glucose, pH 7.2, mOsms 300). After the last wash, 100 μL of 1×ECS was added to the wells and the plate was incubated at 37° C. for 30 min. While incubating the plate, the drugs were diluted to a 2× concentration in 1×ECS-NaI (same components as 1×ECS except the 140 mM NaCl was replaced by 140 mM NaI). The plates were then read on a Flexstation3 (Molecular Devices). Each well, 8 wells at a time, of the plate is read for 2 min using a Flexstation3 (Molecular Devices) as follows: 1) a baseline YFP fluorescence is read for 17 sec, 2) 100 μL of ligand is added, and 3) the changes in YFP fluorescence are then measured every 1.3 sec for 1 minute and 43 seconds. The percent quench is calculated from the average fluorescence of the last 10 seconds of the read divided by the baseline average of the first 15 seconds prior to the ligand addition.
FIGS. 1A-1J provide heat maps of the percent quench of YFP fluorescence following stimulation by various doses of either acetylcholine or the non-native ligand as indicated in the Figures. CODA71 (SEQ ID NO: 33) was used as a control, and CODA75 (SEQ ID NO: 29, a non-responding chimeric engineered receptor) was used as the negative control. Quenching of the fluorescence signal, as indicated by blue shaded cells, indicate the level of engineered receptor activation by the non-native ligand at that concentration.

B1: CODA325: engineered chimeric LGIC receptor, L131G in SEQ ID NO: 33 (protein)
chain: MRCSPGGVWLALAASLLHVSLQGEFQRKLYKELVKNYNPLERPVANDSQPLTVYFSLSLLQIMDVDEKNQVLTTNIWLQMSWTDHYLQWNVSEYPGVKTVRFPDGQIWKPDILLYNSADERFDATFHTNVGVNSSGHCQYLPPGIFKSSCPMDLKNFPMDVQTCKLKFGSWSYGGWSLDLQMQEADISGYIPNGEWDLVGIPGKRSERFYECCKEPYPDVTFTVTMRRRMGYYLIQMYIPSLLIVILSWISFWINMDAAPARVGLGITTVLTMTTQSSGSRASLPKVSYVKAIDIWMAVCLLFVFSALLEYAAVNFVSRQHKELLRFRRKRRHHKSPMLNLFQEDEAGEGRFNFSAYGMGPACLQAKDGISVKGANNSNTTNPPPAPSKSPEEMRKLFIQRAKKIDKISRIGFPMAFLIFNMFYWIIYKIVRREDVHNQ
modifications: synthetic sequence of chimeric LGIC
In the case of B1, the “YFP fluorescence quenching using CNL001” value (1 nM CNL001, first column) is reported as 74.429%, the “YFP fluorescence quenching using CNL001” value (1 nM CNL001, second column) is reported as 78.715% and the “YFP fluorescence quenching using TC-5619/Bradanicline” value (3 nM brd) is reported as 68.45%. The “YFP fluorescence quenching using Varenicline” value (3 nM var, first column) was −12.241, the “YFP fluorescence quenching using Varenicline” value (3 nM var, second column) was −9.415 and the “YFP fluorescence quenching using CNL001” value (10 nM CNL001, first column) was 79.033%. The “YFP fluorescence quenching using CNL001” value (10 nM CNL001, second column) was 79.322%, the “YFP fluorescence quenching using TC-5619/Bradanicline” value (30 nM brd) was 76.95% and the “YFP fluorescence quenching using Facinicline” value (30 nM fac) was 75.75. For the same molecule, the “YFP fluorescence quenching using Varenicline” value (30 nM var, first column) was 75.334, the “YFP fluorescence quenching using Varenicline” value (30 nM var, second column) was 72.278 and the “YFP fluorescence quenching using CNL001” value (50 nM CNL001, first column) was 79.966%. The “YFP fluorescence quenching using CNL001” value (50 nM CNL001, second column) was 80.091%, the “YFP fluorescence quenching using ABT-126” value (50 nM abt) was −17.39% and the “YFP fluorescence quenching using CNL001” value (100 nM CNL001, first column) was 81%. The “YFP fluorescence quenching using CNL001” value (100 nM CNL001, second column) was 79.701%, the “YFP fluorescence quenching using CNL002” value (100 nM CNL002) was 45.62% and the “YFP fluorescence quenching using ABT-126” value (100 nM abt) was 6.89%. For the same molecule, the “YFP fluorescence quenching using AZD-0328” value (100 nM azd0328) was 79.75%, the “YFP fluorescence quenching using ABT-126” value (300 nM abt) was 38.65% and the “YFP fluorescence quenching using AZD-0328” value (300 nM azd0328) was 80.62%. For the same molecule, the “YFP fluorescence quenching using TC-5619/Bradanicline” value (300 nM brd) was 77.1%, the “YFP fluorescence quenching using Facinicline” value (300 nM fac) was 78.01 and the “YFP fluorescence quenching using Varenicline” value (300 nM var, first column) was 78.305. For the same molecule, the “YFP fluorescence quenching using Varenicline” value (300 nM var, second column) was 77.83, the “YFP fluorescence quenching using Varenicline” value (500 nM var, first column) was 75.936 and the “YFP fluorescence quenching using Varenicline” value (500 nM var, second column) was 76.788. The “YFP fluorescence quenching using CNL001” value (1 uM CNL001, first column) was 79.289%, the “YFP fluorescence quenching using CNL001” value (1 uM CNL001, second column) was 80.581% and the “YFP fluorescence quenching using CNL002” value (1 uM CNL002) was 74.72%. For the same molecule, the “YFP fluorescence quenching using ABT-126” value (1 uM abt) was 45.82%, the “YFP fluorescence quenching using TC-6987” value (1 uM tc6987) was 64.59 and the “YFP fluorescence quenching using Varenicline” value (1 uM var, first column) was 77.805. For the same molecule, the “YFP fluorescence quenching using Varenicline” value (1 uM var, second column) was 77.352, the “YFP fluorescence quenching using TC-6987” value (10 uM tc6987) was 76.28 and the “YFP fluorescence quenching using CNL002” value (30 uM CNL002) was 77.4%. The “YFP fluorescence quenching using AZD-0328” value (30 uM azd0328) was 80.19%, the “YFP fluorescence quenching using Facinicline” value (30 uM fac) was 76.61 and the “YFP fluorescence quenching using TC-6987” value (500 uM tc6987) was 70.95. The “percent quench of YFP fluorescence, 30 nM TC-6683” value was −21.27%, the “percent quench of YFP fluorescence, 300 nM TC-6683” value was −18.33% and the “percent quench of YFP fluorescence, 3 uM TC-6683” value was −7.03%. For the same molecule, the “percent quench of YFP fluorescence, 30 uM TC-6683” value was 56.84%, the “percent quench of YFP fluorescence, 100 uM TC-6683” value was 64.51% and the “percent quench of YFP fluorescence, 10 uM ach” value was 5.66%. For the same molecule, the “percent quench of YFP fluorescence, 100 uM ach” value was 74.07%, the “percent quench of YFP fluorescence, 1 mM ach” value was 62.65% and the “percent quench of YFP fluorescence, 3 mM ach” value was 69.49%.

B2: CODA326: engineered chimeric LGIC receptor, L131A in SEQ ID NO: 33 (protein)
chain: MRCSPGGVWLALAASLLHVSLQGEFQRKLYKELVKNYNPLERPVANDSQPLTVYFSLSLLQIMDVDEKNQVLTTNIWLQMSWTDHYLQWNVSEYPGVKTVRFPDGQIWKPDILLYNSADERFDATFHTNVAVNSSGHCQYLPPGIFKSSCPMDLKNFPMDVQTCKLKFGSWSYGGWSLDLQMQEADISGYIPNGEWDLVGIPGKRSERFYECCKEPYPDVTFTVTMRRRMGYYLIQMYIPSLLIVILSWISFWINMDAAPARVGLGITTVLTMTTQSSGSRASLPKVSYVKAIDIWMAVCLLFVFSALLEYAAVNFVSRQHKELLRFRRKRRHHKSPMLNLFQEDEAGEGRFNFSAYGMGPACLQAKDGISVKGANNSNTTNPPPAPSKSPEEMRKLFIQRAKKIDKISRIGFPMAFLIFNMFYWIIYKIVRREDVHNQ
modifications: synthetic sequence of chimeric LGIC
In the case of B2, the “YFP fluorescence quenching using CNL001” value (1 nM CNL001, first column) is reported as 76.424%, the “YFP fluorescence quenching using CNL001” value (1 nM CNL001, second column) is reported as 80.567% and the “YFP fluorescence quenching using TC-5619/Bradanicline” value (3 nM brd) is reported as 72.24%. The “YFP fluorescence quenching using Varenicline” value (3 nM var, first column) was −5.939, the “YFP fluorescence quenching using Varenicline” value (3 nM var, second column) was −2.294 and the “YFP fluorescence quenching using CNL001” value (10 nM CNL001, first column) was 80.284%. The “YFP fluorescence quenching using CNL001” value (10 nM CNL001, second column) was 81.232%, the “YFP fluorescence quenching using TC-5619/Bradanicline” value (30 nM brd) was 77.4% and the “YFP fluorescence quenching using Facinicline” value (30 nM fac) was 69.94. The “YFP fluorescence quenching using Varenicline” value (30 nM var, first column) was 68.663, the “YFP fluorescence quenching using Varenicline” value (30 nM var, second column) was 70.718 and the “YFP fluorescence quenching using CNL001” value (50 nM CNL001, first column) was 81.575%. For the same molecule, the “YFP fluorescence quenching using CNL001” value (50 nM CNL001, second column) was 82.544%, the “YFP fluorescence quenching using ABT-126” value (50 nM abt) was −21.91% and the “YFP fluorescence quenching using CNL001” value (100 nM CNL001, first column) was 81%. The “YFP fluorescence quenching using CNL001” value (100 nM CNL001, second column) was 81.718%, the “YFP fluorescence quenching using CNL002” value (100 nM CNL002) was 27.88% and the “YFP fluorescence quenching using ABT-126” value (100 nM abt) was −0.5%. For the same molecule, the “YFP fluorescence quenching using AZD-0328” value (100 nM azd0328) was 80.39%, the “YFP fluorescence quenching using ABT-126” value (300 nM abt) was 34.86% and the “YFP fluorescence quenching using AZD-0328” value (300 nM azd0328) was 82.07%. For the same molecule, the “YFP fluorescence quenching using TC-5619/Bradanicline” value (300 nM brd) was 78.02%, the “YFP fluorescence quenching using Facinicline” value (300 nM fac) was 80.07 and the “YFP fluorescence quenching using Varenicline” value (300 nM var, first column) was 79.88. For the same molecule, the “YFP fluorescence quenching using Varenicline” value (300 nM var, second column) was 79.742, the “YFP fluorescence quenching using Varenicline” value (500 nM var, first column) was 79.311 and the “YFP fluorescence quenching using Varenicline” value (500 nM var, second column) was 80.029. For the same molecule, the “YFP fluorescence quenching using CNL001” value (1 uM CNL001, first column) was 82.334%, the “YFP fluorescence quenching using CNL001” value (1 uM CNL001, second column) was 81.539% and the “YFP fluorescence quenching using CNL002” value (1 uM CNL002) was 73.79%. For the same molecule, the “YFP fluorescence quenching using ABT-126” value (1 uM abt) was 56.66%, the “YFP fluorescence quenching using TC-6987” value (1 uM tc6987) was 73.37 and the “YFP fluorescence quenching using Varenicline” value (1 uM var, first column) was 80.952. For the same molecule, the “YFP fluorescence quenching using Varenicline” value (1 uM var, second column) was 79.329, the “YFP fluorescence quenching using TC-6987” value (10 uM tc6987) was 78.18 and the “YFP fluorescence quenching using CNL002” value (30 uM CNL002) was 75.89%. For the same molecule, the “YFP fluorescence quenching using AZD-0328” value (30 uM azd0328) was 82.23%, the “YFP fluorescence quenching using Facinicline” value (30 uM fac) was 78.32 and the “YFP fluorescence quenching using TC-6987” value (500 uM tc6987) was 75.42. For the same molecule, the “percent quench of YFP fluorescence, 30 nM TC-6683” value was −16.28%, the “percent quench of YFP fluorescence, 300 nM TC-6683” value was −11.73% and the “percent quench of YFP fluorescence, 3 uM TC-6683” value was −2.38%. The “percent quench of YFP fluorescence, 30 uM TC-6683” value was −9.77%, the “percent quench of YFP fluorescence, 100 uM TC-6683” value was 0.97% and the “percent quench of YFP fluorescence, 10 uM ach” value was 7.43%. The “percent quench of YFP fluorescence, 100 uM ach” value was 73.57%, the “percent quench of YFP fluorescence, 1 mM ach” value was 71.8% and the “percent quench of YFP fluorescence, 3 mM ach” value was 74.49%.
